Test results from the supplement of paper PMC6757056.
± gives the standard deviation of the averaged measurements.

B1: library; a variant is named by its letters at N, in order (parent)
chain: GCUGUCACCGAGAAACUGUGAAGUAUAUCUUAAACCUGGGCACUUAAAAGAUAUAUGGAGUUAGUAGUGCAACCUGCUCGGUCUGAUGAGUCCNNNNNNGGACGAAACAGC

Experiments:
[1] = variants of: B1; test: FACS-Seq fitted mean relative fluorescence mCherry/BFP without ligand (log10 relative fluorescence); HEK293T; ligand: cyclic di-GMP (c-di-GMP-II aptamer); higher = higher reporter protein expression; settings: ligand present: no
Method in brief: (§1)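 With or without ligand for 48 h, enriched HEK293T libraries carrying a lentiviral ribozyme-switch mCherry reporter and EF1α-BFP were sorted into 6 mCherry/BFP bins. Bin genomic DNA was amplified by PCR, barcoded and sequenced on MiSeq. Fluorescence was taken from normal fits to the resulting bin counts. Each fitted mean of log10(mCherry/BFP) was scaled to five spiked-in control ribozymes.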

[2] = variants of: B1; test: normalized RNA/DNA level without ligand (relative to sTRSVctl = 100) (log10 (% of sTRSVctl)); HEK293T; ligand: cyclic di-GMP (c-di-GMP-II aptamer); higher = less ribozyme self-cleavage, higher mRNA level; settings: reporter: mCherry (pCS4076), ligand present: no
Method in brief: (§2)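 For each 6-well well, 4 µg of library plasmid encoding mCherry-linked ribozyme switches, or eGFP-linked ones in some ligand experiments, was transfected into HEK293T. Any ligand was added 1 h before transfection, and RNA was extracted with EDTA 72 h after it, then reverse-transcribed, amplified, barcoded and sequenced. RNA level was obtained by dividing RNA reads by DNA reads, normalizing to a spiked-in non-cleaving sequence or to the top sequences, then scaling and log-transforming. The top set was 25 sequences, scaling was ×100 with log10, and ≥100 DNA reads were required.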

[3] = variants of: B1; test: FACS-Seq fitted mean relative fluorescence mCherry/BFP with ligand (log10 relative fluorescence); HEK293T; ligand: cyclic di-GMP (c-di-GMP-II aptamer); ligand concentration (+) FACS-Seq: 1 mM; higher = higher reporter protein expression; settings: ligand present: yes
Method in brief: as §1

[4] = variants of: B1; test: normalized RNA/DNA level with ligand (relative to sTRSVctl = 100) (log10 (% of sTRSVctl)); HEK293T; ligand: cyclic di-GMP (c-di-GMP-II aptamer); ligand concentration (+) RNA-Seq: 1 mM; higher = less ribozyme self-cleavage, higher mRNA level; settings: reporter: mCherry (pCS4076), ligand present: yes
Method in brief: as §2

Row | Variant | FACS-Seq fitted mean (log10) [1] | normalized RNA/DNA level without ligand (log10) [2] | FACS-Seq fitted mean (log10) [3] | normalized RNA/DNA level with ligand (log10) [4]
1 | AUGGAA | -0.588 ± 0.0092 | 1.33 ± 0.13 | -0.293 ± 0.033 | 1.53 ± 0.14
2 | UUGGCU | -0.121 ± 0.069 | 1.789 ± 0.009 | 0.192 ± 0.12 | 1.88 ± 0.15
3 | AUUGUA | -0.397 ± 0.017 | 1.56 ± 0.031 | 0.0499 ± 0.075 | 1.71 ± 0.097
4 | CUCUUA | -0.241 ± 0.082 | 1.46 ± 0.067 | -0.0535 ± 0.053 | 1.65 ± 0.11
5 | CUCUUG | 0.116 ± 0.092 | 1.73 ± 0.029 | 0.381 ± 0.043 | 1.86 ± 0.096
6 | UUUCUU | 0.255 ± 0.19 | 1.773 ± 0.014 | 0.428 ± 0.021 | 1.89 ± 0.066
7 | UUUCUA | -0.278 ± 0.011 | 1.75 ± 0.065 | -0.016 ± 0.035 | 1.88 ± 0.11
8 | GUGUGC | -0.9793 ± 0.0011 | 1.4 ± 0.12 | -0.724 ± 0.0079 | 1.63 ± 0.09
9 | GUGGUA | -0.522 ± 0.03 | 1.58 ± 0.059 | -0.23 ± 0.015 | 1.72 ± 0.08
10 | GUGGUC | -0.682 ± 0.026 | 1.25 ± 0.077 | -0.386 ± 0.015 | 1.46 ± 0.099
11 | GUGGUG | -0.455 ± 0.011 | 1.69 ± 0.036 | -0.117 ± 0.042 | 1.83 ± 0.12
12 | CUCUCU | -0.0993 ± 0.11 | 1.63 ± 0.06 | 0.163 ± 0.0032 | 1.79 ± 0.13
13 | UUGAUG | -0.5233 ± 0.005 | 1.547 ± 0.013 | -0.419 ± 0.053 | 1.75 ± 0.14
14 | AUGAAC | -0.0137 ± 0.15 | 1.649 ± 0.0059 | 0.334 ± 0.026 | 1.79 ± 0.1
15 | AUGAAA | -0.678 ± 0.011 | 1.4 ± 0.14 | -0.502 ± 0.026 | 1.64 ± 0.1
16 | GUUUGA | -0.499 ± 0.039 | 1.56 ± 0.086 | -0.212 ± 0.018 | 1.71 ± 0.042
17 | GUUUGG | -0.428 ± 0.018 | 1.62 ± 0.068 | -0.249 ± 0.089 | 1.8 ± 0.13
18 | GUUUGC | -0.138 ± 0.079 | 1.66 ± 0.043 | 0.164 ± 0.012 | 1.79 ± 0.15
